One experiment concerns the target Human CD3εδ-Fc (human) (UniProt P04234). Nature of the experiment: KD of scFv-Fc or IgG on human CD3εδ-Fc; instrument not given.
In experiment [1] the target is T1, Cynomolgus CD3 on Cyno CD3+ Jurkat cells (cynomolgus, UniProt Q95LI5 22-198).
T1 construct: whole, on cells; CD3 on cells; also called cCD3
Nature of the experiment: cell binding cCD3, fold over background.

Experiment [2] deals with T2, Human CD3 on Human CD3+ Jurkat cells (human, UniProt P07766 23-207).
T2 construct: whole, on cells; CD3 complex on cells; also called hCD3
T2 sequence (P07766 23-207): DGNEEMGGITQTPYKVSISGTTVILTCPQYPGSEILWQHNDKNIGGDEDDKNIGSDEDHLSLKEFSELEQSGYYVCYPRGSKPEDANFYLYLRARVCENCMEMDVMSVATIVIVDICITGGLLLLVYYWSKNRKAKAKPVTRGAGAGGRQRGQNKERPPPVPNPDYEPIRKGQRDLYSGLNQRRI
Nature of the experiment: cell binding hCD3, fold over background.

The values below come from US20260209352A1 (Adimab, published 2026).

T1 sequence (Q95LI5 22-198): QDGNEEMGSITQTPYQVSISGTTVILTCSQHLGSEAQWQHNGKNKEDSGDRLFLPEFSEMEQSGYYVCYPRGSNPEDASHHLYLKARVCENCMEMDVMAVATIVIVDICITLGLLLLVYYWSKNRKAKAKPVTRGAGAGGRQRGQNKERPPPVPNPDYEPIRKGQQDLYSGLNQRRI
Chain of Human CD3εδ-Fc (human) (chain, as listed by the source mutant, chain 1 of 2): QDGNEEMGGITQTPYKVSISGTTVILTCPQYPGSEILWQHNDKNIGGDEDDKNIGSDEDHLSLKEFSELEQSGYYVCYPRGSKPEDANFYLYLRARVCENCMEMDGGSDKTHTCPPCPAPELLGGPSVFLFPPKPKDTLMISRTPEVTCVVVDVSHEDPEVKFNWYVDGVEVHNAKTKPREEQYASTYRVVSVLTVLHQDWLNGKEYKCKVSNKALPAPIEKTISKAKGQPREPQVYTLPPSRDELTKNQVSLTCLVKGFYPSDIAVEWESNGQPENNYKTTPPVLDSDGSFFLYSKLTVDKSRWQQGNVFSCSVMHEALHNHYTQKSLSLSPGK
Chain of Human CD3εδ-Fc (human) (P04234 22-105, stated change not applied, chain 2 of 2): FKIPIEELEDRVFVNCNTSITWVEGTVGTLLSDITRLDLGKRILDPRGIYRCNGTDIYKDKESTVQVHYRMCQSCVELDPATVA

B1: ADI-46356 (antibody, V domains shown)
VH: QVQLVQSGAEVKKPGASVKVSCKASGFNIKDYYMHWVRQAPGQRLEWIGWIDLENANTVYDAKFQGRVTITRDTSASTAYMELSSLRSEDTAVYYCARDAYGRYFYDVWGQGTLVTVSS
VL: DIVMTQSPDSLAVSLGERATINCKSSQSLLNARTGKNYLAWYQQKPGQPPKLLIYWASTRESGVPDRFSGSGSGTDFTLTISSLQAEDVAVYYCVQSYFRRTFGGGTKVEIK
One may read the Kd as the equilibrium constant for the complex coming apart. A low value points to a tighter complex. For the molecule B1, the Kd with Human CD3εδ-Fc (human) was 0.98 nM. Also, in experiment [1], the “Cell Binding cCD3 (FOB)” value was 59 FOB. The “Cell Binding hCD3 (FOB)” value in experiment [2] was found to be 39 FOB.

B2: ADI-46371 (antibody, V domains shown)
VH: QAQLVQSGAEVKKPGASVKVSCKASGFNIKDYYMHWVRQAPGQRPEWIGWIDLENANTVYDAKFQGRVTITRDTSASTAYMELSSLRSEDTAAYYCARDAYGRYFYDVWGQGTLVTVSS
VL: DIVMTQSPDSLAVSLGERATINCKSSQSLLNARTGKNYLAWYQQKPGQPPKLLIYWASTRESGVPDRFSGSGSGTDFTLTISSLQAEDVAVYYCVQSYFRRTFGGGTKVEIK
notes: also called Ab35
B2 gave a Kd with Human CD3εδ-Fc (human) of 0.86 nM. Also, the “Cell Binding cCD3 (FOB)” value in experiment [1] is 121 FOB. Moreover, the “Cell Binding hCD3 (FOB)” value in experiment [2] came to 47 FOB.

B3: ADI-46358 (antibody, V domains shown)
VH: QVQLVQSGAEVKKPGASVKVSCKASGFNIKDYYMHWVRQAPGQRLEWIGWIDLENANTVYDAKFQGRVTITRDTSASTAYMELSNLRSEDTAVYYCARDAYGRYFYDVWGQGTLVTVSS
VL: DIVMTQSPDSLAVSLGERATINCKSSQSLLNARTGKNYLAWYQQKPGQPPKLLIYWASTRESGVPDRFSGSGSGTDFTLTISSLQAEDVAVYYCTQSYFRRTFGGGTKVEIK
notes: also called Ab31
Molecule B3 came in with a Kd with Human CD3εδ-Fc (human) of 0.99 nM. The “Cell Binding cCD3 (FOB)” value in experiment [1] worked out at 82 FOB. Besides, in experiment [2], the “Cell Binding hCD3 (FOB)” value was 35 FOB.

B4: ADI-46360 (antibody, V domains shown)
VH: QVQLVQSGAEVKKPGASVKVSCKASGFNIKDYYMHWVRQAPGQRPEWIGWIDLENANTVYDAKFQGRVTITRDTSASTAYMELSSLRSEDAAAYYCARDAYGRYFYDVWGQGTLVTVSS
VL: DIVMTQSPDSLAVSLGERATINCKSSQSLLNARTGKNYLAWYQQKPGQPPELLIYWASTRESGVPDRFSGSGSGTDFTLTISSLQAEDVAVYYCTQSYFRRTFGGGTKVEIK
notes: also called Ab44
The molecule B4 showed a Kd with Human CD3εδ-Fc (human) of 0.97 nM. The “Cell Binding cCD3 (FOB)” value in experiment [1] came to 106 FOB. In addition, in experiment [2], the “Cell Binding hCD3 (FOB)” value came out at 40 FOB.

B5: ADI-46362 (antibody, V domains shown)
VH: QVQLVQSGAEVKKPGASVKVSCKASGFNIKDYYMHWVRQAPGQRPEWIGWIDLENANTVYDAKFQGRVTITRDTSASTAYMELSSLRSEDTAAYYCARDAYGRYFYDVWGQGTLVTVSS
VL: DIVMTQSPDSLAVSLGERATINCKSSQSLLNARTGKNYLAWYQQKPGQPPKLLIYWASTRESGVPDRFSGSGSGTDFTLTISSLQAEDVAVYYCVQSYFRRTFGGGTKVEIK
notes: also called Ab46
Turning to B5, the Kd in the experiment with Human CD3εδ-Fc (human) amounted to 0.8 nM. Further, the “Cell Binding cCD3 (FOB)” value in experiment [1] amounted to 95 FOB. In addition, in experiment [2], the “Cell Binding hCD3 (FOB)” value was 7 FOB.

B6: ADI-46365 (antibody, V domains shown)
VH: QVQLVQSGAEVKKPGASVKVSCKASGFNIKDYYMHWVRQAPGQRLEWIGWIDLENANTVYDAKFQGRVTITRDTSAGTAHMELSSLRSEDTAVYYCARDAYGRYFYDVWGQGTPVTVSS
VL: DIVMTQSPDSLAVSLGERATINCKSSQSLLNARTGKNYLAWYQQKPGQPPKLLIYWASTRESGVPDRFSGSGSGTDFTLTISSLQAEDVAVYYCTQSYFRRTFGGGTKVEIK
notes: also called Ab49
In turn, B6 gave an equilibrium dissociation constant (Kd) in the experiment with Human CD3εδ-Fc (human) of 1 nM. For the same molecule, the “Cell Binding cCD3 (FOB)” value in experiment [1] came to 84 FOB. Besides, the “Cell Binding hCD3 (FOB)” value in experiment [2] came out at 36 FOB.

B7: ADI-46367 (antibody, V domains shown)
VH: QVQLVQSGAEVKKPGASVKVSCKASGFNIKDYYMHWVRQAPGQRLEWIGWIDLENANTVYDAKFQGRVTITRDTSASIAYMELSSLRSEDTAVYYCARDAYGRYFYDVWGQGTLVTVSS
VL: DIVMTQSPDSLAVSLGERATINCKSSQSLLNARTGKNYLAWYQQKPGQPPKLLIYWASTRESGVPDRFSGSGSGTDFTLTISSLQAEDVAVYYCAQSYFRRTFGGGTKVEIK
notes: also called Ab32
On to B7, for which, in the experiment with Human CD3εδ-Fc (human), the Kd stood at 0.95 nM. In experiment [1], the “Cell Binding cCD3 (FOB)” value is 62 FOB. The “Cell Binding hCD3 (FOB)” value in experiment [2] was determined as 8 FOB.

B8: ADI-46361 (antibody, V domains shown)
VH: QVQLVQSGAEVKKPGASVKVSCKASGFNNKDYYMHWVRQAPGQRLEWIGWIDLENANTVYDAKFQGRVTITRDTSASTAYMELSSLRSEDTAVYYCARDAYGRYFYDVWGQGTLVTVSS
VL: DIVMTQSPDSLAVSLGERATINCKSSQSLLNARTGKNYLAWYQQKPGQPPKLLIYWASTRESGVPDRFSGSGSGTDFTLTISSLQAEDVAVYYCTQSYFRRTFGGGTKVEIK
notes: also called Ab45
In the experiment with Human CD3εδ-Fc (human), B8 gave a Kd of 0.93 nM. Further, the “Cell Binding cCD3 (FOB)” value in experiment [1] came to 84 FOB. Further, the “Cell Binding hCD3 (FOB)” value in experiment [2] stood at 23 FOB.

B9: ADI-46370 (antibody, V domains shown)
VH: QVQLVQSGAEVKKPGASVKVSCKASGFNIKDYYMHWVRQAPGQRLEWIGWIDLENANTVYDHKFQGRVTITRDTSASTAYMELSSLRSEDTAVYYCARDAYGRYFYDVWGQGTLVTVSS
VL: DIVMTQSPDSLAVSLGERATINCKSSQSLLNARTGKNYLAWYQQKPGQPPKLLIYWASTRESGVPDRFSGSGSGTDFTLTISSLQAEDVAVYYCVQSYFRRTFGGGTKVEIK
notes: also called Ab34
For the molecule B9, the Kd with Human CD3εδ-Fc (human) turned out to be 1 nM. In addition, in experiment [1], the “Cell Binding cCD3 (FOB)” value is 46 FOB. In addition, the “Cell Binding hCD3 (FOB)” value in experiment [2] is 40 FOB.

B10: ADI-46364 (antibody, V domains shown)
VH: QVQLVQSGAEVKKPGASVKVSCKASGFNIKDYYMHWVRQAPGQRLEWIGWIDLENANTVYDAKLQGRVTITRDTSASTAYMELSSLGSEDTAVYYCARDAYGRYFYDVWGQGTLVTVSS
VL: DIVMTQSPDSLAVSLGERATINCKSSQSLLNARTGKNYLAWYQQKPGQPPKLLIYWASTRESGVPDRFSGSGSGTDFTLTISSLQAEDVAVYYCVQSYFRRTFGGGTKVEIK
notes: also called Ab48
B10 came in with a Kd with Human CD3εδ-Fc (human) of 0.97 nM. The “Cell Binding cCD3 (FOB)” value in experiment [1] came to 63 FOB. Also, the “Cell Binding hCD3 (FOB)” value in experiment [2] was 33 FOB.

B11: ADI-46363 (antibody, V domains shown)
VH: QVQLVQSGAEVKKPGASVKVSCKASGFNIKDYYMHWVRQAPGQRLEWIGWIDLENANTVYDAKFQGRVTITRDTSASTAYMELSSLRSEDTAVYYCARDAYGRYFYDVWGQGTLVTVSS
VL: DIVMTQSPDSLAVSLGERATINCKSSQSLLNARTGKNYLAWYQQKPGQPPKLLIYWASTRESGVPDRFSGSGSGTDFTLTISSLQAEDVAVYYCTQSYFRRTFGGGTKVEIK
notes: also called Ab47
In turn, B11 showed a Kd with Human CD3εδ-Fc (human) of 0.93 nM. In addition, the “Cell Binding cCD3 (FOB)” value in experiment [1] turned out to be 129 FOB. Further, the “Cell Binding hCD3 (FOB)” value in experiment [2] turned out to be 49 FOB.

B12: ADI-46369 (antibody, V domains shown)
VH: QAQLVQSGAEVKKPGASVKVSCKASGFNIKDYYMHWVRQAPGQRLEWIGWIDLENANTVYDTKFQGRVTITRDTSASTAYMELSSLRSEDTAVYYCARDAYGRYFYDVWGQGTLVTVSS
VL: DIVMTQSPDSLAVSLGERATINCKSSQSLLNARTGKNYLAWYQQKPGQPPKLLIYWASTRESGVPDRFSGSGSGTDFTLTISSLQAEDVAVYYCVQSYFRRTFGGGTKVEIK
notes: also called Ab33
Consider B12, for which the Kd with Human CD3εδ-Fc (human) came out at 0.92 nM. For the same molecule, the “Cell Binding cCD3 (FOB)” value in experiment [1] came to 71 FOB. Further, the “Cell Binding hCD3 (FOB)” value in experiment [2] was 33 FOB.

B13: ADI-46372 (antibody, V domains shown)
VH: QVQLVQSGAEVKKPGASVKVSCKASGFNIKDYYMHWVRQAPGQRLEWIGWIDLENANTVYDAKFQGRVTITRDTSAGTAHMELSSLRSEDTAVYYCARDAYGRYFYDVWGQGTPVTVSS
VL: DIVMTQSPDSLAVSLGERATINCKSSQSLLNARTGKNYLAWYQQKPGQPPKLLIYWASTRESGVPDRFSGSGSGTDFTLTISSLQAEDVAVYYCVQSYFRRTFGGGTKVEIK
notes: also called Ab36
As to B13, in the experiment with Human CD3εδ-Fc (human), the Kd worked out at 1.1 nM. The “Cell Binding cCD3 (FOB)” value in experiment [1] worked out at 80 FOB. For the same molecule, the “Cell Binding hCD3 (FOB)” value in experiment [2] was 14 FOB.
